Results reported in IntAct's records for PubMed 15908944.

Molecular target: forh_dicdi forH (UniProt Q54N00)
Sequence (Q54N00 whole entry): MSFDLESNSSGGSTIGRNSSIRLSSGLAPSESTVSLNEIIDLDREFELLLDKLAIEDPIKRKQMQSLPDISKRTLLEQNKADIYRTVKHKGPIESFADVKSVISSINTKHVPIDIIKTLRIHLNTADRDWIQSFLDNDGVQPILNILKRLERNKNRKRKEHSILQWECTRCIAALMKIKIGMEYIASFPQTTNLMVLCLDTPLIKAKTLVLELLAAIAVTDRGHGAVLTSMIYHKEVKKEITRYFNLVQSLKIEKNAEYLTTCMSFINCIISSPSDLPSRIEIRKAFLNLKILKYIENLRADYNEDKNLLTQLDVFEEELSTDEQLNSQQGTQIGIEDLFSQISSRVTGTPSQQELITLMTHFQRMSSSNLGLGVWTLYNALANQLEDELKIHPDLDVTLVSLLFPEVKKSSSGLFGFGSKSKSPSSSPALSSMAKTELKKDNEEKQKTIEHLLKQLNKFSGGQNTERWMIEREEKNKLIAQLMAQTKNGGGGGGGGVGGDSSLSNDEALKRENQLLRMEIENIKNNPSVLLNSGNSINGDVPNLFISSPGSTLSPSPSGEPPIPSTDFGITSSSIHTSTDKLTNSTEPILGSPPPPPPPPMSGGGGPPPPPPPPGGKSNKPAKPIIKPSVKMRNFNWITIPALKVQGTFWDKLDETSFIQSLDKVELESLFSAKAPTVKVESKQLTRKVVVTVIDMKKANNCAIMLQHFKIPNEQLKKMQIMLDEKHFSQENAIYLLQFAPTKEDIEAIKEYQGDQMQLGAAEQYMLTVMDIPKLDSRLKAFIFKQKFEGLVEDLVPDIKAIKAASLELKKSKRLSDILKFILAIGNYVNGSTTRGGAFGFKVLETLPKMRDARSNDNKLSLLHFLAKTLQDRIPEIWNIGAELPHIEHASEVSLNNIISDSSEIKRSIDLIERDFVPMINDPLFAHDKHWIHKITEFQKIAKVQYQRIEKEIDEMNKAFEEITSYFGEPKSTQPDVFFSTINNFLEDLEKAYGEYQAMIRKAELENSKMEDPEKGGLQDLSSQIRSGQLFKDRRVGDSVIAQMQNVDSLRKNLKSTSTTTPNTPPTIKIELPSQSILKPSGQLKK

Row | effect of a mutation on the interaction | Substance
1 | decreasing interaction | Rho-related protein rac1A (Dictyostelium discoideum (Slime mold)), P34144 G12V
2 | disrupting interaction | Rho-related protein rac1A (Dictyostelium discoideum (Slime mold)), P34144 T17N
